Results on one substance are retold here after article PMC2120956.

Assay [1] concerns the target embryonic breast muscle myosin isolated from d15 chick embryos (chicken) (UniProt P02565).
Assay [2] deals with embryonic myosin isolated from primary culture myotubes (chicken) (UniProt P02565).

For “F-actin (from UniProt P68139 1-377) (natural protein)”, the results for the actin filament velocity, in vitro motility assay in assay [1] and in assay [2] were 3.8 um/s and 3.1 um/s, respectively.
